Source: patent US20240084003A1 (SIMCERE ZAIMING PHARMACEUTICAL, published 2024)
Where a chain is given by its changes, count along the chain named.

T1: human CD22-ECD-His protein (human, UniProt P20273 20-687)
T1 construct: Made in house in HEK293E; also called hCD22-ECD-His; recombinant human CD22-ECD His protein; not shown: His tag
T1 sequence: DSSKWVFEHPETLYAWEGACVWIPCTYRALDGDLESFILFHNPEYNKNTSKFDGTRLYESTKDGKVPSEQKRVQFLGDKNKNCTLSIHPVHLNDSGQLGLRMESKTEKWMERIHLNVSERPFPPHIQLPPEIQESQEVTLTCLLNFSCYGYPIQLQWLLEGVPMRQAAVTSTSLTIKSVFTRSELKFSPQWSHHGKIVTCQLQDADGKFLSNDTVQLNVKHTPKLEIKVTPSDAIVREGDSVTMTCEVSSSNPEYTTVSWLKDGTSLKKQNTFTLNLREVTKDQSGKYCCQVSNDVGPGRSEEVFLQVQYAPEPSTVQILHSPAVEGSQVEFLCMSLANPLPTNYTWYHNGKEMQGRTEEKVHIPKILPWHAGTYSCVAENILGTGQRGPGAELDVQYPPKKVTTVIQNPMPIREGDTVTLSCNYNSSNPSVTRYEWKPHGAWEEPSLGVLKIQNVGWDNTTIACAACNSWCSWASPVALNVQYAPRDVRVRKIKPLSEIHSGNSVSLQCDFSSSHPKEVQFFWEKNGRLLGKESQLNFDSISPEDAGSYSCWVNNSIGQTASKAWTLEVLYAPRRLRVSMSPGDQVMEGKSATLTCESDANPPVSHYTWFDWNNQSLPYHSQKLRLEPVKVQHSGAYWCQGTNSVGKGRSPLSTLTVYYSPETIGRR

T2: murine CD22 protein (ACROBiosystems, SI2-M52Ha) (murine, UniProt P35329 22-708)
T2 construct: extracellular domain; also called murine CD22-ECD; murine CD22-ECD-His
T2 sequence (looked up): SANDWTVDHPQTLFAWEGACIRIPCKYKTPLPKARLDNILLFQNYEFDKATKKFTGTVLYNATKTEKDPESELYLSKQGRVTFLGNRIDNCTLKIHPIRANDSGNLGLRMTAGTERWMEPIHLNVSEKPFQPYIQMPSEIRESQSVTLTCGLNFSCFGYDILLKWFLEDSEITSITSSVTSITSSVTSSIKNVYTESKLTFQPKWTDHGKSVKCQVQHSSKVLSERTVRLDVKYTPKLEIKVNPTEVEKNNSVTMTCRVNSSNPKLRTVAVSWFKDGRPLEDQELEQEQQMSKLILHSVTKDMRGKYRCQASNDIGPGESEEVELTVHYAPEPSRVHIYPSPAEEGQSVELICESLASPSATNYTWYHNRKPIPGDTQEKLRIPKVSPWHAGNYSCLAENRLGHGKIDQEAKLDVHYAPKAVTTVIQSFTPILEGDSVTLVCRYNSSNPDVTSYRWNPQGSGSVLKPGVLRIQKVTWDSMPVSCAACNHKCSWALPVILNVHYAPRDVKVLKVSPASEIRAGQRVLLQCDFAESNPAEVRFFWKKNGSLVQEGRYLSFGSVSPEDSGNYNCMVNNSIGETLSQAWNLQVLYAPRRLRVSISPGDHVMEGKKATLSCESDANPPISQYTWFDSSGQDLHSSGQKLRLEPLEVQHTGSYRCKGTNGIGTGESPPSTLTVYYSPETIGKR

T3: human CD22 domain1-4-His (human, UniProt P20273 20-425)
T3 construct: also called hCD22 domain1-4-His; not shown: His tag
T3 sequence: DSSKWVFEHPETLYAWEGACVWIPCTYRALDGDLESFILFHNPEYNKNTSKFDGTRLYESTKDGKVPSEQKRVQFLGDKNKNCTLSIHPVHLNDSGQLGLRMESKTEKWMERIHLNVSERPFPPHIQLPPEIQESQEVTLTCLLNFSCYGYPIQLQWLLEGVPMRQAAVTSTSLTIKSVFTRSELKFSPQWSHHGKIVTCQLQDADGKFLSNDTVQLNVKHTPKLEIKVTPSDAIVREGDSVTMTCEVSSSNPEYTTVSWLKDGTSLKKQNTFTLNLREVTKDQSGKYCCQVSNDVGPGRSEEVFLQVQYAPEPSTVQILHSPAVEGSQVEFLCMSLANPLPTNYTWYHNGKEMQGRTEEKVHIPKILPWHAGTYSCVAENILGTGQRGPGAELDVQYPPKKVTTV

B1: F1.200.11 (antibody, human IgG1, kappa, V domains shown)
VH: QNQLVQSGPELKKPGETVKISCKASGYTFTTAGMQWVQKMPGKGFKWIGWINTLSGEPKYAEDFKGRFAFSLETSATTAYLQISNLKNEDTATYFCARAYYSNLYWYFDVWGTGTTVTVSS
VL: DIVMTQSQKFMSTTVGDRVTITCKASQNVVTAVAWYQQKPGQSPKVLIYSASNRYSGVPDRFTGSGSGTDFTLTISNMHSEDLANYFCHQYSSYPFTFGSGTKLEIKR
notes: Human-murine chimeric IgG1, kappa
B2: F1.17.1 (antibody, human IgG1, kappa, V domains shown)
VH: QVQLKESGPGLVAPSQSLSITCTVSGFSLSRYTVHWVRQPPGKGLEWLGMIWGGGSTDYNSALKSRLSISKDNSKSQVFLKMNSLQTDDTAMYYCARPHDFDAGGFAYWGQGTLVTVSA
VL: QIVLTQSPAILSTSPGEKVTMTCSASSRVNYMYWYQQKPGSSPRLLIYDTSNLASGVPVRFSGSGSGTSYSLTISRMEAEDAATYYCQQWTSYPLTFGAGTKLELKR
notes: as for B1
B3: F2.205.9 (antibody, human IgG1, lambda, V domains shown)
VH: QVTLKESGPGILQPSQTLSLTCSFSGFSLSTSGMGVGWIRQPSGKGLEWLAHIWWDDDEYYNPALKSRLTISKDTSKNQVFLKIANVDTADTATYYCARISIPYGYYDWFFDVWGTGTTVTVSA
VL: QAVVTQESALTTSPGETVTLTCRSSTGAVTTRNYANWVQEKPDHLFTGLIGGTNNRAPGVPARFSGSLIGDKAALTITGAQTEDEAIYFCALWYSNHFIFGSGTKVTVLG
notes: Human-murine chimeric IgG1, lambda
B4: F2.55.1 (antibody, human IgG1, lambda, V domains shown)
VH: QVTLKESGPGILQPSQTLSLTCSFSGFSLSTFPLGVGWIRQPSGKGLEWLAHVWWNDDDYYNPALKSRLTISKDTSNTRVFLSVASVDTAETATYYCARLNWDRWYFDVWGTGTTVTVSS
VL: QLVLTQSSSASFSLGASAKLTCTLSSQHSAYTVEWYQQQPLKPPKYVMELKKDGSHSTGDGIPDRFSGSSSGADRYLSISNIQPEDEAIYICGVGDTVKEQFVFGGGTKVTVLG
notes: as for B3
B5: F1.280.1 (antibody, human IgG1, kappa, V domains shown)
VH: QIQLVQSGPELKKPGETVKISCKASGYTFTTYGMSWVKQTPGKGLTWMGWINTDSGVPTYADDFKRRFAFSLEASATTAYLQINNLKNEDTATYFCARGGPDYWGQGTTLTVSS
VL: DILLTQSPATLSVTPGETVSLSCRASQSIYKNLHWYHQKSHRSPRLLIKYASDSISGIPSRFTGSGSGTNFTLSINSVKPEDEGIYYCLQGYIVPLTFGAGTKLELKR
notes: as for B1
B6: F1.245.2 (antibody, human IgG1, kappa, V domains shown)
VH: EVQLQQSGAELVKPGASVKLSCTGSGFNIKDYYIHWVKQRTEQGLEWMGRIDPEDGETEYAPKFQDEATITSDTSSNTAYLQLSSLTYEDTAVYYCAREAAGYFYRGSSYGYFDVWGTGTTVTVSS
VL: DFQMTQTTSFLSASLGDRVTISCSASQDISNYLNWYQQKPDGTVKLLIYYTSSLHSGVPSRFSGSGSGTDYSLTISNLEPEDIATYYCQQYSMLPYTFGGGTKLEMER
notes: as for B1
B7: F1.257.3 (antibody, human IgG1, kappa, V domains shown)
VH: QVQLQQSGPELARPGASVKLSCKASGYTFTSYGISWVKQRTGQDLEWIGEIYPKLGTTYYNEKFKDKATLTTDRSSSTAYMALRSLTSEDSAVYFCACPHYYATRGGDYWGQGTTLTVSS
VL: EIVLTQSPATLSVTPGDSVTFSCRASQSISNHLHWYQQKSHESPRLLIRYASQSISGIPSRFSGSGSGTDFTLSLSSVETEDFGVYFCQQSHSWPYTFGGGTKLEIAR
notes: as for B1
B8: F2.70.2 (antibody, human IgG1, lambda, V domains shown)
VH: EVQLVESGGGLVKPGGSLKLSCAASGFTFSDYGMNWFRQAPEKGLEWVAYISRGSHTIYYADTVKGRFTISRDNAKNTLFLQMTSLRSNDTAMYYCVRMAGYYAMDYWGQGTSVTVSS
VL: QLVLTQSSSASFSLGASAKLTCTLSSQHSSYIIEWYQQQPLKPPKYVMELKKDGSHSTGDGIPDRFSGSSSGADRYLSISNIQPEDEAIYICGVGDTIKEQFVYVFGGGTKVTVLG
notes: as for B3
B9: F2.104.10 (antibody, human IgG1, lambda, V domains shown)
VH: B8 VH with L11F, K76E, V114L
VL: B8 VL with L50V, P84S
notes: as for B3

Legend:
[1] = target: T1, human CD22-ECD-His protein; assay: ELISA, Ab 0.10 nM
How it was run: (§1)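 Coat: CD22-ECD-His 2 μg/mL PBS, 4 °C o/n. Block PBS/2% BSA 2 h RT. Ab 2 h 37 °C; HRP 2° 2 h 37 °C; TMB 30 min RT, 1.0 N HCl stop.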

[2] = target: T2, murine CD22 protein (ACROBiosystems, …); assay: ELISA, murine CD22-ECD-His coated
How it was run: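 Read-out is TMB absorbance after a 30 min room-temperature development stopped with 1.0 N HCl. It reflects chimeric antibody bound to plate-coated CD22 (2 μg/mL), detected with an HRP-labelled secondary antibody. Antibody and secondary incubations each ran 2 h at 37° C.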

human CD22 domain1-4-His = target: T3, human CD22 domain1-4-His; assay: ELISA, human CD22 domain1-4-His coated
[3] = target: T1, human CD22-ECD-His protein; assay: ELISA, Ab 0.01 nM
How it was run: as §1

[4] = target: T1, human CD22-ECD-His protein; assay: ELISA, Ab 0.001 nM
How it was run: as §1

[5] = target: T1, human CD22-ECD-His protein; assay: ELISA, human CD22-ECD-His coated
How it was run: as §1

[6] = target: T1, human CD22-ECD-His protein; assay: ELISA, Ab 100.00 nM
How it was run: as §1

Binder | OD450 [1] | binding result [2] | binding result (human CD22 domain1-4-His) | OD450 [3] | OD450 [4] | EC50 (read off the curve) [5] | OD450 [6] | EC50 (read off the curve) (human CD22 domain1-4-His)
B1 | 2.4 OD450 | no binding (tested: 100 nM) | no binding (tested: 100 nM) | 2 OD450 | 0.85 OD450 | ~0.03 nM | 2.34 OD450 | –
B2 | 2.41 OD450 | no binding (tested: 100 nM) | – | 1.85 OD450 | 0.75 OD450 | ~0.03 nM | 2.86 OD450 | ~0.1 nM
B3 | 2.1 OD450 | no binding (tested: 100 nM) | – | 1.48 OD450 | 0.4 OD450 | ~0.06 nM | 2.22 OD450 | ~0.04 nM
B4 | 2.03 OD450 | no binding (tested: 100 nM) | – | 1.3 OD450 | 0.44 OD450 | ~0.06 nM | 2.08 OD450 | ~0.1 nM
B5 | 2.38 OD450 | no binding (tested: 100 nM) | – | 1.92 OD450 | 0.81 OD450 | ~0.02 nM | 2.46 OD450 | ~0.05 nM
B6 | 2.57 OD450 | no binding (tested: 100 nM) | – | 2.3 OD450 | 1.24 OD450 | ~0.01 nM | 2.7 OD450 | ~0.02 nM
B7 | 2.49 OD450 | no binding (tested: 100 nM) | – | 1.66 OD450 | 0.6 OD450 | ~0.06 nM | 2.83 OD450 | ~0.3 nM
B8 | 1.86 OD450 | no binding (tested: 100 nM) | – | 1.56 OD450 | 0.57 OD450 | ~0.03 nM | 2.24 OD450 | ~0.03 nM
B9 | 1.94 OD450 | no binding (tested: 100 nM) | – | 1.7 OD450 | 0.66 OD450 | ~0.03 nM | 2.44 OD450 | ~0.04 nM
